Measurements as given in US20080145339, “Adeno-associated virus AAV Rep78 major regulatory protein mutants thereof and uses thereof” (University of Arkansas, published 2008).

Target: T1, AAV Rep78 wild-type (adeno-associated virus 2, UniProt Q89268 SEQ:1-621)
T1 sequence: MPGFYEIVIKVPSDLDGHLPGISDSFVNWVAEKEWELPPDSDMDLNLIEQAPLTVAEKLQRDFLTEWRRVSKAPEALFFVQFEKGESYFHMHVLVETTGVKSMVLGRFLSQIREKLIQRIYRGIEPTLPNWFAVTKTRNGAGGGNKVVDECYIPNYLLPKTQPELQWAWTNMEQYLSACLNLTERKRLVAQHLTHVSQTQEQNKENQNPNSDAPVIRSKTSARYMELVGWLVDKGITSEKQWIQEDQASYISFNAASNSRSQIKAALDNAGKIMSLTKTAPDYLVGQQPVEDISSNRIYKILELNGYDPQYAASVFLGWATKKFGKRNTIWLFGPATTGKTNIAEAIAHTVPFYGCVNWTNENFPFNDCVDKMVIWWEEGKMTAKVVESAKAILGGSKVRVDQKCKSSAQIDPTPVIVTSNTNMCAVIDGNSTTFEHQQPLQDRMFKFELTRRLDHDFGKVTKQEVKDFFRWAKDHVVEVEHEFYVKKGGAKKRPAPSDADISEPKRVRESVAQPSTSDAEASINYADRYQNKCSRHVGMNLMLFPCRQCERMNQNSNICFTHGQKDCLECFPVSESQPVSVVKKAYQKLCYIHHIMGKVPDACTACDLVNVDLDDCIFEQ
Assay: EMSA; minus strand strongly recognized
Conditions: tags: MBP fusion (pMALc2, amylose purified); label: 32P

B1: HPV-16 p97 minus strand nt 14-106 (ssDNA)
DNA: CATTGCAGTTCTCTTTTGGTGCATAAAATGTCTGCTTTTATACTAACCGGTTTCGGTTCAACCGATTTCGGTTACGCCCTTAGTTTTATACAT
modifications: [NONE]
B1: binds.
